The values below are quoted from earlier work in paper PMC5691641.

The target of this data set is Bax (Homo sapiens) (UniProt Q07812).
Sequence of Bax (Homo sapiens) (Q07812 whole entry): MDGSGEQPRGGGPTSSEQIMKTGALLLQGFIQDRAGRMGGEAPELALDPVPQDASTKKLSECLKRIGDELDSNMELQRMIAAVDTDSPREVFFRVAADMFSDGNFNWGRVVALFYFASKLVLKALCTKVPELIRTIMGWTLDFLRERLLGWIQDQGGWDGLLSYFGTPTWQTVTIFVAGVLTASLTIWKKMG

Sequence of vMIA (P16778 23-487): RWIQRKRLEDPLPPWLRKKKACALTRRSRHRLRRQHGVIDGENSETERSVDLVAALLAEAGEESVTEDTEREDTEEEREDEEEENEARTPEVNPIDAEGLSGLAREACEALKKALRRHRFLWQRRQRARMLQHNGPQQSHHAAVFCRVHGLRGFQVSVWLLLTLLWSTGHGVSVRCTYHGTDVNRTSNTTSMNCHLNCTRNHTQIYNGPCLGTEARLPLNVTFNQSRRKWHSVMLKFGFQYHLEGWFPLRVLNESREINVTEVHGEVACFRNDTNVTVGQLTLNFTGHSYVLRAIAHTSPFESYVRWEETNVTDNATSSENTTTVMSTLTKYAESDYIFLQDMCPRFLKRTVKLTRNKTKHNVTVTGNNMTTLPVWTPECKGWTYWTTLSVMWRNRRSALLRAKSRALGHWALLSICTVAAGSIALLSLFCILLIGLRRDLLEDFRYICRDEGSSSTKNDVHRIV

A word on the Kd: it is the concentration at which binding is half-saturated. Take vMIA (from UniProt P16778): the Kd was 22 nM.
